Experimental data from the DeepSol protein solubility set.

Experiment: soluble on expression in E. coli; label from the status in PepcDB or PDB records

Row | Sequence | soluble on expression in E. coli
1 | QEGTLERSDWRKFFSEFQAKGTIVVADERQADRAMLVFDPVRSKKRYSPASTFKIPHTLFALDAGAVRDEFQIFRWDGVNRGFAGHNQDQDLRSAMRNSTVWVYELFAKEIGDDKARRYLKKIDYGNADPSTSNGDYWIEGSLAISAQEQIAFLRKLYRNELPFRVEHQRLVKDLMIVEAGRNWILRAKTGWEGRMGWWVGWVEWPTGSVFFALNIDTPNRMDDLFKREAIVRAILRSIEALPPNPAVNSDAAR | soluble
2 | QESSGNKIHFINVQEGGSDAIILESNGHFAMVDTGEDYDFPDGSDSRYPWREGIETSYKHVLTDRVFRRLKELSVQKLDFILVTHTHSDHIGNVDELLSTYPVDRVYLKKYSDSRITNSERLWDNLYGYDKVLQTATETGVSVIQNITQGDAHFQFGDMDIQLYNYENETDSSGELKKIWDDNSNSLISVVKVNGKKIYLGGDLDNVHGAEDKYGPLIGKVDLMKFNHHHDTNKSNTKDFIKNLSPSLIVQTSDSLPWKNGVDSEYVNWLKERGIERINAASKDYDATVFDIRKDGFVNISTSYKPIPSFQAGWHKSAYGNWWYQAPDSTGEYAVGWNEIEGEWYYFNQTGILLQNQWKKWNNHWFYLTDSGASAKNWKKIDGIWYYFNKENQMEIGWVQDKEQWYYLDVDGSMKTGWLQYMGQWYYFAPSGEMKMGWVKDKETWYYMDSTGVMKTGEIEVAGQHYYLEDSGAMKQGWHKKANDWYFYKTDGSRAVGWIKDKDKWYFLKENGQLLVNGKTPEGYTVDSSGAWLVDVSIEKSATIKTT | soluble
3 | QFDPSIVLTEVAMLLEKADINEEVERTKSHLKQFYGIILLEEPIGRKLDFLIQEMNREINTIGSKASSLKITEQVVEMKTTLEKIREQVQNVE | not soluble
4 | QGHMPSDSKKPTIIYPCLWDYRVIMTTKDTSTLKELLETYQRPFKLEFKNTSKNAKFYSFNVSMEVSNESERNEIFQKISQLDKVVQTLGS | soluble
5 | QGKPREAAQHLEAEASRASGAQRNQLLADAAFAWHEAGDTARAQVLVRQVSVQQLTGESKARFVLLLGELALANRQPVRAFQYFGESSSGLSKKLQIRWLLGRAAALEANGDAFGAAQQRARADQALLGKARNENQAAITRLLAGLDHEVLLTRTAALPVGDPLYHFVGRVLLSRGEALPQPLEGSVQGSVGSSQRPSADTDGYRPPLKLAVLLPLTGSLATAAAPVRDGFLAGYYAETRRRPDLDFFDTGSTPVGAKAAYAKAIAAGADFVVGPLGRDEVSALFSQGQLSIPLLALNRSTGDRVSLPSGSASFSLAPEDDGVIAADYLLAQGQRNVIVIGSNDDVGRRGVQAFMDRFRARGGQVLAALGVADVPGDLGPRLRGADRADAVFLAVRGPTARVLAPQLASLGLSSKPQVGTSQLVLGTGKPEEDTLLDGIVYPTEPWSVQGVKSIPSAADVAVRLPNMRGAALRLFAFGVDAWKLSVYLEGLSAGGAGGGLRGATGTLRLDDSGNVIRIPIWATFRNGQSIPVEML | not soluble
6 | QITLKESGPGIVQPSQPFRLTCTFSGFSLSTSGIGVTWIRQPSGKGLEWLATIWWDDDNRYNPSLKSRLTVSKDTSNNQAFLNMMTVETADTAIYYCAQSAITSVTDSAMDHWGQGTSVTVSSAKTTPPSVYPLAPGSAAQTNSMVTLGCLVKGYFPEPVTVTWNSGSLSSGVHTFPAVLQSDLYTLSSSVTVPSSTWPSETVTCNVAHPASSTKVDKKIVPADC | soluble
7 | QLGMKGYADTIDRQRMQTQAQFVLEKMSREIRHAVPNSFHVPTGSTNCLEFMPIEYSGFYTLTNNNLEFLLGNDSTLNPIPADRWMVINPSRYEDLQSASPQSLAVGNLAKTGD | not soluble
8 | QLKDKFDGRPTKPPPNSYSLYCAELMANMKDVPSTERMVLCSQQWKLLSQKEKDAYHKKCDQKKKDYEVELLRFLESLPEEEQQRVLGEEKMLNI | soluble
9 | QPKPEVPQCVADWIEECKEEDLTLKGLFSNSDMPAKIFDWIFGSDENCRLMAEAWINGYTVEKEKLYTVDLPNGQPLVRGINTLYFSQNLATENVKLTESEIRKDFEWAWQFAEEVTE | not soluble
10 | QPPQFKLDPRLARLLGIHTQTRPVIIQALWQYIKTHKLQDPHEREFVLCDKYLQQIFESQRMKFSEIPQRLHALLMPPEP | soluble
11 | QPSPPQRPNRCTVCRKRVGLTGFMCRCGTTFCGSHRYPEVHGCTFDFKSAG | soluble
12 | QQKILENIRGIGTNTMTIFNGNGFGDRRSRHIQNLKISDANTLSKQSYIQSVTPNTSSSGILVVGNKSFTSANLYGIGEQYFDVEGLKLKQGRLLTEDDVDQSNQVVVLDESAKKAIFANENPLGKTVIFNKRPFRVIGVVSDQQLGGFPGNSLNLYSPYSTVLNKITGGSRIGSITVKISDDVNSTVAEKSLTELLKSLHGKKDFFIMNSDTIKQTIENTTGTMK | soluble
13 | QRLKVEDALSYLDQVKLQFGSQPQVYNDFLDIMKEFKSQSIDTPGVISRVSQLFKGHPDLIMGFNTFLPPG | soluble
14 | QSATARPMAIALGVAEPAPRGFLLIGANRVAREIGQALARYDRRVLMTDSNWEYISQVRMMGLDYYYGNPISSHADDNLNMIGIGQVVALTPDQHFNIMACMQFVDEFGEDKVHCLQKVKTNGNGSEKHSVAQEYHGKLLMGGNVSYTQLASLLSRGAEIKHTKLSENFTYQDYLEHHKTNLVIPLFNVEDKGKIQFCDDPDQFAPSTTSTIVSLILPESAQ | not soluble
15 | QSIVVDMREFRSELPSLIHRRGIDIEPVTLEVGDYILTPEMCVERKSISDLIGSLNNGRLYSQCISMSRYYKRPVLLIEFD | not soluble
16 | QTLARVDLAYDDYDGIFDCEYAYKAWRDDCFRTAERGRGPVLHEDMTIASIGKDGKPIYTKEQYSIGSRTSRIYWRIYNKALEQKLANTGLVWYRSEVELKKWNVDVLLNPAGAYAALNDFAASISTAKKFNTKPVPTKRAALDLLASAHWMRRQYGKILNSLIEFHEGDIETVVGSLVRDGTKFTFPDTYG | not soluble
17 | QVKPFSFVRDTDPVQLVNFLQSEHPQTIAVVLSYLDPPVAAQILGALPEELQTEVLKRIALLERTSPEVVKEIERNLEKKISGFVSRTFSKVGGIDTAAEIMNNLDRTTEKKIMDKLVQENPELADEIRRRMFVFEDILKLDDRSIQLVLREVDTRDLALALKGASDELKEKIFKNMSKRAAALLKDELEYMGPVRLKDVEEAQQKIINIIRRLEEAGEIVIARGGGEELIM | soluble
18 | QVQLKESGPGLVAPSQSLSITCTVSGFSLTDYGVDWVRQPPGKGLEWLGMIWGDGSTDYNSALKSRLSITKDNSKSQVFLKMNSLQTDDTARYYCVRDPADYGNYDYALDYWGQGTSVTVSSAKTTPPSVYPLAPGSAAQTNSMVTLGCLVKGYFPEPVTVTWNSGSLSSGVHTFPAVLQSDLYTLSSSVTVPSSTWPSETVTCNVAHPASSTKVDKKIVPRDCG | soluble
19 | QVQLQESGPGLVAPSQSLSITCTVSGFSLTGYGVNWVRQPPGKGLEWLGMIWGDGNTDYNSALKSRLSISKDNSKSQVFLKMNSLHTDDTARYYCARERDFRLDYWGQGTTLTVSS | soluble
20 | QVQLQQSGAELVKPGASVRMSCKASGYTFTNYNMYWVKQSPGQGLEWIGIFYPGNGDTSYNQKFKDKATLTADKSSNTAYMQLSSLTSEDSAVYYCARSGGSYRYDGGFDYWGQGTTVTVSS | soluble
21 | QVQLVESGGGTVPAGGSLRLSCAASGNTLCTYDMSWYRRAPGKGRDFVSGIDNDGTTTYVDSVAGRFTISQGNAKNTAYLQMDSLKPDDTAMYYCKPSLRYGLPGCPIIPWGQGTQVTVSS | soluble
22 | RCGAGEPWGNATNLGVPCLHWDEVPPFLERSPPASWAELRGQPHNFCRSPDGAGRPWCFYRNAQGKVDWGYCDCGQG | soluble
23 | REPLSFSLFSQPECVEQPERLAQVFALLVNAHYQTSPNDLFALLQDEAMTLFVAYQGEVCVGCVLAVREGELDAPTIEAIQLGTRRPKGHLTPVTLANQLGISQAARQSCWRILRIAVHPDCQRQGIGSQLLTHFIAQHHADYYATSFGVSEDLLPFWLANHFVPIKLGSHRDQASGCYSLLMVRG | not soluble
24 | RGSHHHHHHGSFTPSGTTGTTKLTVTEECQVRVGDLTVAKTRGQLTDAAPIGPVTVQALGCNARQVALKADTDNFEQGKFFLISDNNRDKLYVNIRPMDNSAWTTDNGVFYKNDVGSWGGTIGIYVDGQQTNTPPGNYTLTLTGGYWAK | soluble
25 | RKGHFSRCPKQYKHYCIKGRCRFVVAEQTPSCVCDEGYIGARCERVDLFY | soluble
26 | RKIFTNKCERAGCRQREMMKLTCERCSRNFCIKHRHPLDHDCSGEGHPTS | soluble
27 | RKRPLVLTADRGRGKSSALGIACAQLLQHKPLRILLTAPSINAVEPVYQHAQRLLTDAKQMKKDRLEVGYGYIQFIAPDELLSSLPECDLLLVDEAAAIPVPMLKQITEHYHRLVFSSTIHGYEGCGRGFTLKFIEWLQQQRPGMKTYHMQQPIRWSVDDKLEMWLYDAFILN | not soluble
28 | RKYAFEDVFRVGREDVNEMADRILNSLSSYKPRVGCIAFSGGVDSSLLAALYDAPLVSVTASDAEEEWLKTAARMLGKEIEILKVGESAIREVVDTVRKTIETGDFLQLSIAVPVYLTMQFAKSLGFTEIIFGQGADELFGGYKRYEGLSEHELEDALVKDLKSIGESNLVRDCKLAYKNEIKLVTPYLCWDVIDAALKIPPEYKVRREGGKVVRKYILRKIAEKFLPEEIAWRDKKAIQYSTGIAKI | not soluble
29 | RLPFMAQYDRLGLTRSNTSCHNNTGKQCLWGDTEKQPELLVLGDSHADHYKTFFDAVGKKEKWSATMVSADACAYVEGYASRVFQNWAACRAVYRYAEEHLPRYSKVVLAMRWGSQMPENSRSLAYDAGFFQKFDRMLHKLSSEKQAVYLMADNLASSYNVQRAYILSSRIPGYRQALRPDDESTLKANARIRELAAKYPNVYIIDAAAYIPADFQIGGLPVYSDKDHINPYGGTELAKRFSEKQRFLDTRHNH | not soluble
